This note sets out measurements from a protein production outcome set (Wang et al. 2014).

This data set in a line: label from the status in PepcDB records.

Take “MVYKNILVGLDGSSQADNAFKVACGLANALSADLHPIWIVNRDRGMDSSFGVNEDFYRDQYHQVQDKLVSYVEDAKKAGLKVTGEALVGNIKLVLANEYPKEHGIDLIVLGNTGLNTVEKLVVGSHTSYVIRNSACDVLVVK”: the protein production entry is given as “failed”. The same measure for “MVYPRMGRVPLPPKGAQHYTTMCQFCNVGCGYDVYVWPAGAEGSPEPGGHGIEYKIVDEAYGRNLVKQPDFTKEHTGLSAEEGEPWISEAMVVKTIRRTWERGRGTGGWREVYVAQVPSPECPINWGNHSVRGGTQAERIWSPWNIAGERRLTKPLVRFGGRLEPVSWEYAIDLVARVVKGVIDKWGIERPGWGKEGHAVFAHRMDHGGGGGGGMIFNTVVGLFFFYGVRTAFARIHNRPFFGPENPAAGDAGPGAMNTSYHDLRLADTIILWGNNPYSTATVMFVKHVLDNLRGATKAEKQRWFNPGEPVIDSRIIIVDPRRTETVEAAEAAAGKDRVLHLQVKPGTDIVLANAIARVIYERYGDVVEEFVNHYRSAAGWGFKWDEEGFQKYVSEALQVGEETLDEVLAEAESITGVPRDKIELAAKWIAERKEGGYPKRVWLMYEKGIIWNQNYRSIYSLFDLCMIAGATRGLPGCGCQRQGGHQEGFASPAPPPPPWTDERHHIAYPDKSLYDEYYNTKYPRADFYMPTTDFRLANGEGKVLWVIDMDNYRLAPNSQRLKAVVGDRAWRVTRYVFAEAYANVGGKESEPNYDPNALEPVITTPPSSREYAEKVLQALEETGGLFVIVEDIYPTFMVEDAHVVLPAAFNNGEWPDVRMGVHERRFRIADAWLDPPGEAKPDWWILANVAKRIVELYEEEGRGGDPVAERFRKAFKPIWDAMEANARDPTVEVENEIFKTYIANADEAYARLGVHWEVQYWTPEFKKLDLNILRKLRTIGTVLPITKLDVKPDGTIEVRGVVNIMEPALNDTYREEVVVVKPDGTIVRRIEVVPSNETVRSYVPGHLKPWPAVWDKYPPYVDELIRKGYKYWVVNGRYNAIWQTGYADPNVVEIMARHPMNIVQVNPEDAAKEGLENGDIVVIYNDYGSTTAMVWVTRVVAPGTIFLIMAHPKAVGANAVTTPSVDPAAQNPDYKLTLANLRKIGRADETIIKKVTFKDIRFAVR”: “failed”; for “MVYSTTTGRFCGLFCLRDQMPVSTNRHPYSENTMEIIVNGEARAATPMSMLELLRSLDIDPRRVAVELNHDILPKGEYESTILNDGDRIEIVHFVGGGLEHHHHHH”: “not failed”; for “MVYVGTSGFSFEDWKGVVYPEHLKPSQFLKYYWAVLGFRIVELNFTYYTQPSWRSFVQMLRKTPPDFYFTVKTPGSVTHVLWKEGKDPKEDMENFTRQIEPLIEEQRLKMTLAQFPFSFKFSRKNVEYLEKLRESYPYELAVEFRHYSWDREETYEFLRNHGITFVVVDEPKLPGLFPYRPITTTDYAYFRFHGRNERWFEAEGEERYDYLYSEEELKTLFEDVVELSRRVKETYVFFNNCYKGQAAINALQFKKMLEERV”: “not failed”. To “MWDETVAGPKPEHGLGRLRNKITTQPLDIKGVGEGSSSKTVAAVAGSPGTPTTPGSARKENVWRSVFHPGSNIATRGMGTNLFDKPSHPNSPTVYDWLYSDDTRSKHR” belongs “failed”. Regarding “MWHIFERFVNEYERWFLVHRFAYLSELQAVKCLLPEGRGVEIGVGTGRFAVPLKIKIGVEPSERMAEIARKRGVFVLKGTAENLPLKDESFDFALMVTTICFVDDPERALKEAYRILKKGGYLIVGIVDRESFLGREYEKNKEKSVFYKNARFFSTEELMDLMRKAGFEEFKVVQTLFKHPSELSEIEPVKEGYGEGAFVVIRGTKK”, the protein production entry is recorded as “not failed”. Take “MWHYLFLAIYVTMIIGIATVTKKRIKGVSDFLLGGRNVNPWMSAFSYGTAYFSAVIFIGFAGKMGWSFGIPTMWIVVGNTIIGSFLAWQVLGKKTREMTQRLGASTMPSFLEKRYKSKNLESLTAFIIFFFLVPYSASIYKGLNFLFEGFGISPMNAYILMAALTAIYLYFGGFIAATLADFVQGCIMVIGVLLMVFFLSSNPEVGGFSGMLSNLSSIDPILVSPISEASFIPIIGLALLTSIGSWGLPQMIHKFYTIKSEKAAVSAKWVSTAFAFIITFGAAYIGTVSRLFYPDAASKVAAGLTSPDMIVPKIMEIALPDWVAALILVLVISASMSTLASLVLASSSVVSIDFVKGRLKPDLSDKNTMILMRLLCVLFVALSFVLAIVPNSYVLSLMALSWGLVSGCLLAPYFLGLYWKRTTKEGVWAGITSALAIMLGGACYFGVNSVYMPAVGSLAMIAPIFVVMAVSLITKPFESEHIDYIFNKK”: the protein production entry is recorded as “failed”. On to “MWITGASGGLGERIAYLCAAEGAHVLLSARREDRLIEIKRKITEEWSGQCEIFPLDVGRLEDIARVRDQIGSIDVLINNAGFGIFETVLDSTLDDMKAMFDVNVFGLIACTKAVLPQMLEQKKGHIINIASQAGKIATPKSSLYSATKHAVLGYSNALRMELSGTGIYVTTVNPGPIQTDFFSIADKGGDYAKNVGRWMLDPDDVAAQITAAIFTKKREINLPRLMNAGTKLYQLFPALVEKLAGR”, for which the protein production result is given as “failed”. In the case of “MWITQETWLKALPWNKKRYRSQIMEVICKHYTPLDIASQAIRTCWQSFEYSDDGGCKDKELIHRVGNIFRHSSTLEHLYYNFEIKGLSRGALQELSRHRIASLSVKSSRYTLRELKEVESFLPLNETNLERAKEFLVFVDNEKVNAMSVLALENLRILLSEHNIKNDLAKYAMPESYKTHLAYSINARSLQNFLTLRSSNKALKEMQDLAKALFDALPGEHQYLFEDCLKH”, the protein production result is on record as “failed”. To “MWKRLLIVSAVSAAMSSMALAAPLTVGFSQVGSESGWRAAETNVAKSEAEKRGITLKIADGQQKQENQIKAVRSFVAQGVDAIFIAPVVATGWEPVLKEAKDAEIPVFLLDRSIDVKDKSLYMTTVTADNILEGKLIGDWLVKEVNGKPCNVVELQGTVGASVAIDRKKGFAEAIKNAPNIKIIRSQSGDFTRSKGKEVMESFIKAENNGKNICMVYAHNDDMVIGAIQAIKEAGLKPGKDILTGSIDGVPDIYKAMMDGEANASVELTPNMAGPAFDALEKYKKDGTMPEKLTLTKSTLYLPDTAKEELEKKKNMGY” belongs “failed”; to “MWKRTITVPAPYDFAHVLDRLSLDPLMAVDVERQRITVPLHLDGLKIPVVIESIGTKEAPRFVVLAPHSNRQEDILERVSHLFQWQTPLAPVYDHFRTTELAPLFARYEGLPLVLDFDLYFCLMKCFIHQQLHLKVGYRLTERFVKTFGEERDGVWFYPRPEDIAARSYDDLRALQLSRRKAEYIVDVSRLIADGTLRLDDLEQMEDGEVMERLTAIRGIGPWTVQNFLLFGLGRPNVFPPADIGLQRAVERLFQLPKRPTASELALLGERWKPYTSYAALYLWRSIE”, “failed”; to “MWLMSHDMLAIIWFGLWGVIWTVYFILDGYALGNGMIFPFVTKDRQERNQLQEAIGPFWGGNEVWLITAGGATFAAFPVTYANMFSYLYTPLFLVLLALFARAAGLEFMHKDDSPIWQKTCKWAFAIGSFLIAFLFGVTFANLYYGLQIGKNGYEGNLLSLLNHYGILGGLFFTAIFVVSGALWVMIKTTGEVSDRAYKIARPFSMAAAIILAIFYVATANRTNLFQNFTEYPVLFILPVLAMLMSVLALIMVYKHKIGLAFTFVCLTIAMFMTTGFAGMFPRMLPSRINDAYSTTLYNAAGSQLNLKIMFFVAMVMVPIVIGYQLWSYSIFKNKIHKDSAKGYH”, “failed”. To “MWLYYLQVVMDMRVYVEGYGCVLNTADTEIIKNSLKKHGFEVVNNLEEADIAIINTCVVRLETENRMIYRINELKNLGKEVVVAGCLPKALKNKVKGFLHIYPREAHKAGEILKNYVEKHYRMPYIEEDINKTLYKKLDYLKPSLITPLPICEGCIGNCSYCIVKIARGGLISYPREKIVNKAKELINKGAKCLLITAQDTACYGFDIGDNLANLLNELTQIKGEFIMRVGMMHAKNAELILDELIEVYQNEKVGKFLHLPLQSGDDEILKRMKRGYTVDEFKDIVNEFRRKIKNLCFTTDIIVGFPGETEEQFQNTLEVLRELKPDYIHGAKYSQRKGTEAAKMKQIDTKIRKRRSEILDKLRRELSYLNNKKYIGKAMKVLVLDEGKGYTDNFKVVKFEGGEVGEFRKVKITDAKTFGLKGELILLEHHHHHH” belongs “not failed”; to “MWMPPRPEEVARKLRRLGFVERMAKGGHRLYTHPDGRIVVVPFHSGELPKGTFKRILRDAGLTEEEFHNL”, “not failed”.
